Ends that are not written are not given here.
What was measured:
[1] = biological target: T1, ADDomer with one cysteine mutation A477C (synthetic penton base protomer based on …); test: non-reducing SDS-PAGE and blot; biotinylated peptide detected with Alexa488 avidin, ADDomer with a specific antibody and a Cy3 secondary antibody; covalent disulfide
T1 construct: Virus-like particle: 12 pentamers of 5 engineered penton base protomers each; also called Cys-ADDomer; Cys modified ADDomer
T1 chain: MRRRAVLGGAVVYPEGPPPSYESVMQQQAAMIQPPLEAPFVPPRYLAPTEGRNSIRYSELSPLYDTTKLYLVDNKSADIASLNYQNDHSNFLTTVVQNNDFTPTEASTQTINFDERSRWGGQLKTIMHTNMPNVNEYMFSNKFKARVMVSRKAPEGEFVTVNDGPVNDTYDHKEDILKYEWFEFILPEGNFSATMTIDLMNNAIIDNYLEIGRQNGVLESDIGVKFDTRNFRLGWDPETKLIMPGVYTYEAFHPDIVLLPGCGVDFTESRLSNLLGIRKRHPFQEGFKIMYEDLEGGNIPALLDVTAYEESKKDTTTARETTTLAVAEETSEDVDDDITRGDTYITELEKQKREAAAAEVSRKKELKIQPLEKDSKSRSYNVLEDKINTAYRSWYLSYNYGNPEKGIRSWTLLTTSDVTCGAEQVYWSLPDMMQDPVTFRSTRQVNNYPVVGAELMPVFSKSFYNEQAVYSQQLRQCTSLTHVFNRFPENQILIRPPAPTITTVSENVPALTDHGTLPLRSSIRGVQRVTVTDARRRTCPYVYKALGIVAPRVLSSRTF
Procedure: (§1) FIG. 14: Covalent coupling of “STICKER” peptide to ADDomer containing targeted cystein mutations. Wild-type ADDomer (wt) and ADDomer with one cysteine mutation (K363C, Q476C or A477C, respectively) were incubated with STICKER peptides (C20 (SEQ ID NO: 77) and C9 (SEQ ID NO: 75), respectively). SDS-PAGE analysis was performed under reducing (+bMeSH) and non-reducing (−bMeSH) conditions and transferred to a PVDF membrane. ADDomer (dark grey) and STICKER peptide (light grey) were visualized by binding of labelled antibody and Avidin binding, respectively, evidencing STICKER binding to cysteine-mutant ADDomer by specific disulfide bond formation (marked by white circle in lower panel)
(§2) To widen the ADDomer potential, a system enabling the addition of extra epitopes at the ADDomer was developed. Single cysteines were inserted at specific locationd of the ADDomer sequence (either K363C or Q476C or A477C). […] Complexes were run on SDS-PAGE and ADDomer was detected by a specific antibody and a secondary antibody labelled with Cy3 while the biotinylated peptide was detected by Alexa488 labeled avidin. When the right Cys-ADDomer/peptide was used, the presence of peptide was detected at the ADDomer band size (circle in FIG. 14). […]

[2] = biological target: T2, ADDomer with one cysteine mutation Q476C (synthetic penton base protomer based on …); test: as above
T2 construct: Virus-like particle: 12 pentamers of 5 engineered penton base protomers each; also called Cys-ADDomer; Cys modified ADDomer
T2 chain: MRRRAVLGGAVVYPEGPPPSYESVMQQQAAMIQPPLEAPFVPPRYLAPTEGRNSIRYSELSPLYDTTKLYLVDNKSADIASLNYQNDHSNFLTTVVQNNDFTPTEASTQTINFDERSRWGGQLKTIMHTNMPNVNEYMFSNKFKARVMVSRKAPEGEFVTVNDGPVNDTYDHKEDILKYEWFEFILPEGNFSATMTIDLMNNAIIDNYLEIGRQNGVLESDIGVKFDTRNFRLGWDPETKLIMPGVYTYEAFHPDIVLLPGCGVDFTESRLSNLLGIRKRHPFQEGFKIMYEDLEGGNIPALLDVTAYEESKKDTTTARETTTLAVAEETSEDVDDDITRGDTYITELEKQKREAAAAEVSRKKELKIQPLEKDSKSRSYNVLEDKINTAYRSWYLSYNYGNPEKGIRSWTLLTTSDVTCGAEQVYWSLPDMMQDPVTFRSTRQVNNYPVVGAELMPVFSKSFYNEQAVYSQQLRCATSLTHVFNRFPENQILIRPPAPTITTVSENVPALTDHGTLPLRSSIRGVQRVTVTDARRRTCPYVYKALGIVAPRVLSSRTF
Procedure: as §1, §2

B1: STICKER peptide C9 (fibre protein fragment, Cys at position 9) (peptide)
peptide: AKRARLSTCFNPVYPYEDES
modifications: also: biotinylated (position not given here)
notes: Detected by Alexa488 labelled avidin
binding result [1]: binds | binding result [2]: binds

From patent US20200325179A1 (EUROPEAN MOLECULAR BIOLOGY LABORATORY, published 2020)
